Literature values in publication PMC5877629.

Target: infliximab
Assay: sedimentation equilibrium analytical ultracentrifugation

infliximab
Kd: 21 µM
